In patent US20260015418A1:

Biological target: human 4-1BB on Jurkat cells (Promega) (human) (UniProt Q07011)
Test: cell-based or functional assay

human 4-1BB on Jurkat cells (Promega) (human), sequence (Q07011 24-255): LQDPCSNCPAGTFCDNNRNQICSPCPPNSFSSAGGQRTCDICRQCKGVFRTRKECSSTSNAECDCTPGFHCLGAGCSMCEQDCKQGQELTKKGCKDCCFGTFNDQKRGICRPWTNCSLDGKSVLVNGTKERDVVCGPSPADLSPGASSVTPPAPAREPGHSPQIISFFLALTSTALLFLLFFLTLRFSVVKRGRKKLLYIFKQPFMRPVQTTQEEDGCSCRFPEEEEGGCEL

EC50 (nM), 4-1BB NFκB luciferase reporter bioassay, CHO-hROR1 100%: 0.235 nM
Substance: Urelumab (BMS-663513) (antibody)
